Our source for the Ki values is US20030087827A1.

Non-standard residues stand in square brackets, D forms with d.

Experiment [1] concerns the target recombinant truncated mouse furin (mouse) (UniProt P23188). The experiment is described as follows: enzyme inhibition, pERTKR-MCA hydrolysis (fluorescence), competitive Ki.
Experiment [2] addresses proprotein convertase PC2. Described as above.

recombinant truncated mouse furin (mouse), sequence (P23188 108-714): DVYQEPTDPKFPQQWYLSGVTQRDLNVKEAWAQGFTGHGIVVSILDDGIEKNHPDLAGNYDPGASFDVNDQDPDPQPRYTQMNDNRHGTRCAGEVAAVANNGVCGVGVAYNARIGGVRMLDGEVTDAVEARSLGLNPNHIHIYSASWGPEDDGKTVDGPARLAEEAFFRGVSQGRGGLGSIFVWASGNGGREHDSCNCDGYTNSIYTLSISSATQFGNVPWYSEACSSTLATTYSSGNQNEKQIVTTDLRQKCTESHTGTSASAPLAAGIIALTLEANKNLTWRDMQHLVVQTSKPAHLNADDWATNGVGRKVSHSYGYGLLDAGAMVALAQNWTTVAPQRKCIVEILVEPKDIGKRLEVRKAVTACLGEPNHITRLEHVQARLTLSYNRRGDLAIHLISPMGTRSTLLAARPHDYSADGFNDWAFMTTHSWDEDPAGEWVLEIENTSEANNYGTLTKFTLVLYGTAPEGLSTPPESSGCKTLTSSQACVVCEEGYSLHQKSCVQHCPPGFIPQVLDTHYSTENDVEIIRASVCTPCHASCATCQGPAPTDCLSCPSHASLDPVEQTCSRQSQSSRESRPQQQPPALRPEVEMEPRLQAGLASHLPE
proprotein convertase PC2, sequence (P21661 109-637): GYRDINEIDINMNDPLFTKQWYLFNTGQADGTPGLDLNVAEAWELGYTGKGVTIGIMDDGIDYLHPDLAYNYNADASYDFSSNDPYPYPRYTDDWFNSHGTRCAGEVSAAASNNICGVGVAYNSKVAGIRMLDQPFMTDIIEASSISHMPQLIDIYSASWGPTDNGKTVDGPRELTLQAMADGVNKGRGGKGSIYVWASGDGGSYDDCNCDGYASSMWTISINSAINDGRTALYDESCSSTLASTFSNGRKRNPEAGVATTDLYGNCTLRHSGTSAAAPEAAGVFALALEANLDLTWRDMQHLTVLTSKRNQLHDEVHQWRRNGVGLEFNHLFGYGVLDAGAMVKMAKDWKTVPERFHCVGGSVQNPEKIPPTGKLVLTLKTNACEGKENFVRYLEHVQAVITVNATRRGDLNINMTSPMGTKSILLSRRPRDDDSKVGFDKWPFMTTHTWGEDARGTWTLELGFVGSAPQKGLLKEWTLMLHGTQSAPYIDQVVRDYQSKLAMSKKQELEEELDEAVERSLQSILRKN

B1: Ac-wrrrir-NH2 (peptide)
peptide: Ac-[dW][dR][dR][dR][dI][dR]-NH2
SMILES: CC[C@@H](C)[C@@H](NC(=O)[C@@H](CCCNC(=N)N)NC(=O)[C@@H](CCCNC(=N)N)NC(=O)[C@@H](CCCNC(=N)N)NC(=O)[C@@H](Cc1c[nH]c2ccccc12)NC(C)=O)C(=O)N[C@H](CCCNC(=N)N)C(N)=O
For B1, the Ki turned out to be 7 µM in experiment [1] and 399 µM in experiment [2].

B2: Ac-wrrrrl-NH2 (peptide)
peptide: Ac-[dW][dR][dR][dR][dR][dL]-NH2
SMILES: CC(=O)N[C@H](Cc1c[nH]c2ccccc12)C(=O)N[C@H](CCCNC(=N)N)C(=O)N[C@H](CCCNC(=N)N)C(=O)N[C@H](CCCNC(=N)N)C(=O)N[C@H](CCCNC(=N)N)C(=O)N[C@H](CC(C)C)C(N)=O
Turning to B2, the Ki in experiment [1] is 5.3 µM; in experiment [2] it was 203 µM.

B3: Ac-wrrril-NH2 (peptide)
peptide: Ac-[dW][dR][dR][dR][dI][dL]-NH2
SMILES: CC[C@@H](C)[C@@H](NC(=O)[C@@H](CCCNC(=N)N)NC(=O)[C@@H](CCCNC(=N)N)NC(=O)[C@@H](CCCNC(=N)N)NC(=O)[C@@H](Cc1c[nH]c2ccccc12)NC(C)=O)C(=O)N[C@H](CC(C)C)C(N)=O
B3: the figures for the Ki in experiment [1] and in experiment [2] were 22.7 µM and 601 µM, respectively.

B4: Ac-wrrrrr-NH2 (peptide)
peptide: Ac-[dW][dR][dR][dR][dR][dR]-NH2
SMILES: CC(=O)N[C@H](Cc1c[nH]c2ccccc12)C(=O)N[C@H](CCCNC(=N)N)C(=O)N[C@H](CCCNC(=N)N)C(=O)N[C@H](CCCNC(=N)N)C(=O)N[C@H](CCCNC(=N)N)C(=O)N[C@H](CCCNC(=N)N)C(N)=O
As to B4, the values for the Ki in experiment [1] and in experiment [2] were 2.4 µM and 334 µM, respectively.
